The nanobody polyreactivity screen of Harvey et al. (2022)

Assay: yeast display, Sf9 membrane polyspecificity reagent, FACS + sequencing; frameworks hold sequencing errors
In short: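 Sorting gates, low and high (top ~1%), were placed on anti-HA fluorescence to track expression and on streptavidin fluorescence to track reagent binding. A clone's polyreactivity label is taken from the gate it came out of. The reagent was 10% biotinylated, detergent-solubilized Sf9 membrane, applied for 1 hour at 4 °C to galactose-induced yeast display cells.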

Sequence | polyreactivity (PSR sort gate)
QVQLVESGGGLVQAGGSLRLSCAASGSIFSFNVMGWYRQAPGKEREMVATITGGGSTNYADSVKGRFTISRDNAKNTVYLQMNSLKPEDTAVYYCNKRNRWTPFYTYDYWGQGTQVTVSS | low polyreactivity
QVHLVESGGGLVQAGGSLRLSCAASGFIFDPYGMGWYRQAPGKERELVAAISSRVGSTYYADSVKGRFTISRDNAKNTVYLQLNSLKPEDTAVYYCAADNDGVGYWVYEEMDYWGQGTQVTVSS | low polyreactivity
QVQLVESGGGLVQAGGSLRLSCAASGFIFYYYTMVWYRQAPGKERELVAAIRTGGGTNYADSVKGRFTISRDNAKNTVYLQRNSLKPEDTAVYYCAKGRQGVSYLTGTYGGRDYWGQGTQVTVSS | low polyreactivity
QVQLVESGGGLVQAGGSLRLSCAASGSIFYGYAMGWYRQAPGKERELVAAISRGGSTYADSVKGRFTISRDNAKNTVYLQMNSLKPEDTAVYYCARRYWNCPLRGWYGYWGQGTQVTVSS | high polyreactivity
QVQLVESGGGLVQAGGSLRLSCAASGSTFFDYAMGWYRQAPGKERELVAVISDGGTTTYADSVKGRFTISRDNAKNTVYLQMNSLKPVDTAVYYCAAENQDGLLVILGGYGYWGQGTQVTVSS | low polyreactivity
QVQVVESGGGLVQAGGSLRLSCAASGSICHVNAMGWYRQAPGKERELVADISKRGASTYYADSVKGRFTISRDNAKNTVYLQMNSLKPEDTAVYYCAARVVTPRRQWYTYDYWGQGTQVSVSS | high polyreactivity
QVQLVESGGGLVQAGGSLRLSCAASGRILYRYAMGWYRQAPGKERELVAAITWRGGTTYYADSVKGRFTISRDNAKNTVYLQMNSLKPEYTAVYYCNADWWRTLESDFWGQGTQVTVSS | low polyreactivity
QVQLVESGGGLVQAGGSLRLICAASGRTFRYYAMGWYRQAPGKERELVAAISASGGSTFYADSVKGRFTISRDNAKNTVYLQMNSLKPEDTAVYYCAAYHYSVFPYKQYDYWGQGTQVTVSS | high polyreactivity
QVQLVESGGGLVQAGGSLRLSFPASGFTFFGYAMGWYRQAPGKERELVAAISTIDGDTYYADSVKGRFTISRDNAKNTVYLQMNSLKPEDTAVYYCAADDYIDGDDYWGQGTQVTVSS | low polyreactivity
QVQLVESGGGLVQAGGSLRLSCAASGSTFAGNAMGWYRQAPGKERELVAAISGSGGITYYADSVKGRFTISRDNAKNTVYLQMNSLKPEDTAVYYCNAYYWFSRYGYWGQGTQVTVSS | high polyreactivity
QVQLVESGGGLVQAGGSLRLRCAASGGIFTNNAKGWYRQAPGKERELVAAITGSGASTYYADSVKARFTISRDNAKNSVYLHLNSLKPEDTAVYYCNTDSPYGWEGEFDYWGLGTQVTVSS | high polyreactivity
QVQLVESGGGLVQEGGSLRLSCAASGIIFRVYAMGWYRQAPGKERELVATITYSGGITYYADSVKGRFTISRVNAKNTVYLQMNSLKQEDTAGYYPIGVGGDYDYWGQGTQVSVSS | low polyreactivity
QVQLVESGGGLVQAGGSLRLSCAASGFTIFIYAMGWYRQAPGKEREFVAAITGSGGSTYYADSVKGRFTISRDNAKNTVYLQMNSLKPEDTAVYYCAAESEYVYWYYVDYDYWGQGTQVTVSS | high polyreactivity
QVQLVESGGGLVQAGGSHRLSCAASGRTFPGNAMGWYRQAPGKERELVAAISWSGTRTYYADSVKGRFTISRDNAKNTVYLQMNSLKPEDTAVYYCNVVVKGAWDYYPYDYWGQGTQVTVSS | high polyreactivity
QVQLVESGGGLVQAGGSLRLSCAASGFTFDTYTMGWYRQAPGKERELVAAISSGGNTNYADSVKGRFTISRDNAKNTVYLQMNSLKPEDTAVYYCARGATLLQYSYWGVYEYDSWGQGTQVTVSS | low polyreactivity
QVKLVESGGGLVQAGGSLRLSCAASGGNFYRYAMGWYRQAPGKERELVAAITRGDSTNYADSVKGRFTISRDNAKNTVYLQMNSLKPEDTAVYYCNAAVSARQNDTGGFQGDYWGQGTQVTVSS | low polyreactivity
QVQLVESGGGLVQAGGSLRISCAASGSTFDYDDMRWYRQAPGKERELVASITSGGITDYADSVKGRFTISRDNAKNTVYLQMNSLTPEDTAVYYCNAARQYSRSAEGYLVWGYSWGQGTQVTVSS | low polyreactivity
QVQLVESGGGLVQAGGSLRLSCAASGSIFYDNAMGWYRQAPGKERELVASIRYSGVRTYYADSVKGRFTISRDNAKNTVYLQMNSLKPEDTAVYYCAADVYRQFYPFKSDYWGQGTQVTVSS | high polyreactivity
QVQLVESGGGLVQAGGSLRLSCAASGRTFYYYAMGWYRQAPGKERELVARISRGGSTNYADSVKGRFTISRDNAKNTVYLQMNILKPEDTAVYYCAKTISYTGRFWGYDYWGQGTQVTVSS | high polyreactivity
QVQLVESGGGLVQAGGSIRLSCAASGFTFRRNAMGWSRQAPGKERELVAAITSSGASTYYADSVKGRFTISRDNAKNTVYLQMNSLKPEDTAVYYCAARQTYYKYGYWGQGTQVTVSS | high polyreactivity
QVQLVESGGGLVQAGGSLRLSCAASGSIFYVYAMGRYRQAPGTEWELVAAISSGDISYYADSVKGRFTISRDNAKNTVYLQKNSLKPEDTAVYYCNAERLGNTLSPGGDDYWGQGTQVTVSS | low polyreactivity
QVQLVESGGGLVQAGGSLRLSCAASGSTFYYNAMGWYRQAPGKERELFAAITFTGGSTYADSVKGRFTISRDNAKNTVYLQMNSLKPEDTAVFYCAATIQGHDYLGSGYDYWGQGTQVTVSS | low polyreactivity

Sequence | polyreactivity (PSR sort gate)
QVQLVESGGGLVQAGGSLRISCAASGSIFYNYAMGWYRQAPGKERELVAAINRSGGITFYADSVKGRFTISRDNAKNTVYLQMNSLKPEDTAVYYCAADRSFGHHYWYTGKRYDYWGQGTQVTVSS | low polyreactivity
QVQLVESGGGLVQAGGSLRLSCAASGSTFSKYTMGWYRQAPGKERELVAAISVSVGRTYYADSVKGRFTISRDNAKNTVYLQMNSLKPEDTAVYYCAAAYSGLYYWGQGTQVTVSS | high polyreactivity
QVQLVESGGGLVQAGGSLRLSCAASGYTFKLYAMVWSRQAPGKERELVAAIRRGGTTNYADSVNGRFTISRDNSKNTVYFQMNSLKPADTAVYYCAADGWYPGFYYPYTEFDYWGQGTQVTVSS | high polyreactivity
QVQLVESGGVLVQAGGSLRLSCAASGSTFGPNAMGWYRQAPGKERELVAAIRSNGGRTYYADSVKGRFTISRDNAKNTVYLQMNSLKPEDTAVYYCAAPHYPYDTPYGYWGQGTQVTVSS | low polyreactivity
QVQHVESGGGLVQAGGSLRLSCAASGRTFAWYAMGRYRQAPGKERELVAAISSGGSTYYADSVKGRFTISRDNAKNTVYLQMNSLKPEDTAVYYCAAEWHYIYAYDYWGQGTQVTVSS | low polyreactivity
QVQLVESGGGLVQAGGSLRLSCAASGSIFLRYAMGWYRQAPGKERELVATISKSGGSTYYADSVKGRFTISRDNAKNTVYLQMNSLKPEDTAVYYCAAGYVYFQTYYYWGQGTQVTVSS | high polyreactivity
QVQLVESGGGLVQAGGSLRLSCAASGRIFDYYAMGWYRQAPGKERELVAAIDWRGDRTYYADSVKGRFTISRDNAKNTVYLQMNSLKPEDTAVYYCNVLDTRQVGGYRFDYWGQGTQVTVSS | low polyreactivity
QVQLVESGGGLVQAGGSLRLSCAASGYTFASYDMGWYRQAPGKERELVAAIDWSGGSTYYADSVKGRFTISRDNAKNTVYLQMNSLKPEDTAVYYCAAERPWTYGSDGMDYWGQGTQVTVSS | low polyreactivity
QVQLVESGGGLVQAGGSLRLSCAASGLTLTHYAMGWYRQAPGKERELVAAISSSGGRTYYADSVKGRFTISRDNAKNTVYLQMNSLKPEDTAVYYCAARVIASRGRYGYWGQGTQVTVSS | high polyreactivity
QVQLVESGGGLDQAGGSLRLSCAASGSTFQAYARGWYRQAPGKERELVAAISRRSGSTYYADSVKGRFTISRDNAKNTVYLQMNSLKPEDTAVYYCNAGSRRPYDYWGQGTQVTVSS | low polyreactivity
QVQLVESGGGLVQAGGSLRLSCAASGRIISRYAMGWYRQAPGKERELVAAISRRGGSTYYADSVKGRFTISRDNAKNTVYLQMNSLKPEDTAVYYCAAVRRKTAGGLEDYWGQGTQVTVSS | high polyreactivity
QVQLVESGGGLVQAGGSLRLSCAASGSTFKWTAMGWYRPAPGKERELVAAITGSGTGTYYADSVKGRFTISRDNAKNTVYLQMNSLKPEDTAVYYCAAYVYGYKYYYWGQGTQVTVSS | high polyreactivity
QVQLVESGGGLVQAGGSLRLSCAASGSIFVSYAMGWYRQAPGKERELVAVISYSGVSTYYADSVKGRFTISRDNAKNTVYLQMNSLKPEDTAVYYCATRQYGTRHILKYNYWGQGTQVTVSS | low polyreactivity
QVQLVESGGGLVQAGGSLRLSCAASGSTFFPNGMGWYRQAPGKERELVAAITQDGGSTYYADSVKGRFTISRDNAKNTVYLQMNSLKPEDTAVYYCAASAGPYYEYGYWGQGTQVTVSS | low polyreactivity
QVQLVESGGGLVQAGGSLRLRCAASAGTFGIYSMGWYRQAPGKEREFVAAISGRGGTTYDADSVKGRFTISRDNAKYTVYLQMNSLKPVDTAVYYWATDSVNVGSNVGDKHDYWGQGTQVTVSS | low polyreactivity
QVQLVESGGGLVQAGGSLRLSCAASGIIFKYYSKGWYRQAPGKERELVAAITSGGSTNYADSVKGRFTISRDNAKNTVYLQMNSLKPEDTAVYYCAKRFYYRNRFDYWGQGTQETVSS | low polyreactivity
QVQLVESVGGLVQAGGSLRLSCAASGSTFVGNAMGWYRQAPGKERELVAAITGGGGSTYYADSVKGRFTISRDNAKNTVYLQMNSLKPEDTAVYYCAREYTYYPRWVGYDAYGEDYWGQGTQVTVSS | low polyreactivity
QVQLVESGGGLVQAGGSLRLSCAASGFISFAYAMAWYRQAPGKERELVAGISRSGDSTYYADSVKGRFTISRDNAKNTVYLQMNSLKPEDTAVYYCAARQVVWFDYTTAQVGSYKVNYWGQGTQVTVSS | low polyreactivity
QVQLVESGGGLVQAGGSLRLSCAASGSIIYYYAMGWYRQAPGKERELVAAISASGGRTYYADSVKGRFTISRDNAKNTVYLQMNSLKPEDTAVYYCAKRGTLGSYYYWGQGTQVTVSS | high polyreactivity
QVQLVESGGGLVQAGGTLRLSCAASGSTFELNVMGWYRQAPGKERELVAAISSGTSTNYADSVKGRFTISRDNAKYTVYLHLKSVKPVDTAVYYCAADPFTIPTSDFYYWGQVTQVTVSS | low polyreactivity
QVQLVESGGGLVQAGGSLRLSCAASGFTLSRYAMGWYRQAPGKERELVAAIRWSGGSTYYADSVKGRFTISRDNEKNTVYLQMNSLKPEDTAVYYCATRRSGYYSFYYWGQGTQVTGSS | high polyreactivity
